Here are results for 16 molecules from paper PMC4275594 (Nature Communications, 2014).

Changes are numbered by the printed parent chain. Numbers in names are those of the source.

Experiment [1] addresses human IL-18 receptor beta extracellular domain (residues 15-356), C-terminal 6xHis, wild type, from silkworm (human) (UniProt O95256). The experiment is described as follows: SPR; BIAcore 3000, 25 °C; C-terminal 6xHis IL-18Rβ (wild type or mutant) immobilised at about 100 RU on a Ni-NTA sensor chip; un-tagged IL-18Rα saturated with 500 nM IL-18 (preformed binary complex) injected as analyte in HBS-P; triplicate.

The target in experiment [2] is human IL-18 receptor alpha extracellular domain (residues 20-329), C-terminal 6xHis, wild type, from silkworm (human) (UniProt Q13478). The experiment is described as follows: SPR; BIAcore 3000, 25 °C; C-terminal 6xHis IL-18Rα (wild type or mutant) immobilised at about 200 RU on a Ni-NTA sensor chip; IL-18 (wild type or mutant) injected as analyte in HBS-P (10 mM HEPES-Na pH 7.4, 150 mM NaCl, 0.01% P-20), 30 µl/min, 180 s association, 360 s dissociation; triplicate. (SPR reads the build-up and loss of mass on a sensor chip optically.)
Sequence of human IL-18 receptor alpha extracellular domain (residues 20-329), C-terminal 6xHis, wild type, from silkworm (human) (Q13478 20-329): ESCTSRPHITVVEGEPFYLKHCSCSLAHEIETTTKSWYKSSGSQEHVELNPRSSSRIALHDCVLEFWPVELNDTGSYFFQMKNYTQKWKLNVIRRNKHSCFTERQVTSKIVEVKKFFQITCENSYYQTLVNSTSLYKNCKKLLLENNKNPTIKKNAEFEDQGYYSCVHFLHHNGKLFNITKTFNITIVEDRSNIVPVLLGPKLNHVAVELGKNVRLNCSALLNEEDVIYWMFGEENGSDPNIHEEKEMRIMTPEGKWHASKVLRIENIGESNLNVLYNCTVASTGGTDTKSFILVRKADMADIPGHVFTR

The target of experiment [3] is T1, preformed binary complex of IL-18 wild type and un-tagged IL-18Rα wild type extracellular domain (human, UniProt Q14116 37-193; Q13478 20-329).
T1 construct: interleukin-18, human, mature IL-18 (residues 1-157); numbers count on: the mature protein; IL-18 receptor alpha, human, extracellular domains, residues 20-329 of NM_003855; also called IL-18 WT/IL-18Rα WT complex; IL-18/IL-18Rα; source: IL-18: E. coli BL21(DE3), purified; IL-18Rα: silkworm larvae haemolymph, purified; un-tagged IL-18Rα saturated with 500 nM IL-18
The experiment is described as follows: SPR; BIAcore 3000, 25 °C; C-terminal 6xHis IL-18Rβ (wild type or mutant) immobilised at about 100 RU on a Ni-NTA sensor chip; un-tagged IL-18Rα saturated with 500 nM IL-18 (preformed binary complex) injected as analyte in HBS-P; triplicate. Conditions: both partners purified.

With “preformed binary complex of IL-18 K84A and un-tagged IL-18Rα wild type extracellular domain (from UniProt Q13478 20-329)”, in experiment [1], the dissociation constant Kd – broadly, the free concentration of one partner at which half of the binding sites on the other are occupied at equilibrium, for simple one-to-one binding – amounted to 18 nM and the kon (commonly the second-order rate constant of association) is 10000 M⁻¹ s⁻¹.
As to “human interleukin-18, mature, R147A (ligand)”, in experiment [2], the Kd amounted to 67 nM and the kon was 68000 M⁻¹ s⁻¹.
In experiment [2], “human interleukin-18, mature, M150A (ligand)” registered a Kd of 59 nM and a kon of 57000 M⁻¹ s⁻¹.
“preformed binary complex of IL-18 R147A and un-tagged IL-18Rα wild type extracellular domain (from UniProt Q13478 20-329)”: in experiment [1], the kon came out at 69000 M⁻¹ s⁻¹.
In experiment [1], “preformed binary complex of IL-18 K79A and un-tagged IL-18Rα wild type extracellular domain (from UniProt Q13478 20-329)” had a Kd of 13 nM and a kon of 13000 M⁻¹ s⁻¹.
In experiment [2], “human interleukin-18, mature, K79A (ligand)” yielded a Kd of 55 nM and a kon of 76000 M⁻¹ s⁻¹.
The like results for “human interleukin-18, mature, G108A (ligand)” were, in that order, 184 nM and 52000 M⁻¹ s⁻¹.
The like results for “human interleukin-18, mature, G145A (ligand)” were, in that order, 57 nM and 59000 M⁻¹ s⁻¹.
In experiment [2], “human interleukin-18, mature, K112A (ligand)” displayed a Kd of 51 nM and a kon of 64000 M⁻¹ s⁻¹.
In experiment [2], “human interleukin-18, mature, H109A (ligand)” came in with a Kd of 48 nM and a kon of 62000 M⁻¹ s⁻¹.
The like results for “human interleukin-18, mature, D110A (ligand)” were, in that order, 23 nM and 106000 M⁻¹ s⁻¹.

B1: human IL-18 receptor beta extracellular domain (residues 15-356), C-terminal 6xHis, E210A (receptor, UniProt O95256-1 15-356, looked up)
chain: ERIKGFNISGCSTKKLLWTYSTRSEEEFVLFCDLPEPQKSHFCHRNRLSPKQVPEHLPFMGSNDLSDVQWYQQPSNGDPLEDIRKSYPHIIQDKCTLHFLTPGVNNSGSYICRPKMIKSPYDVACCVKMILEVKPQTNASCEYSASHKQDLLLGSTGSISCPSLSCQSDAQSPAVTWYKNGKLLSVERSNRIVVDAVYDYHQGTYVCDYTQSDTVSSWTVRAVVQVRTIVGDTKLKPDILDPVEDTLEVELGKPLTISCKARFGFERVFNPVIKWYIKDSDLEWEVSVPEAKSIKSTLKDEIIERNIILEKVTQRDLRRKFVCFVQNSIGNTTQSVQLKEKR
notes: IL-18 receptor beta, human, extracellular domains, residues 15-356 of NM_003853; also called IL-18Rβ E210A; source: silkworm (B. mori) larvae, BmNPV bacmid, haemolymph, purified (ion exchange, Ni-NTA, gel filtration); not shown: 6xHis, C-terminal, kept
B1 returned a kon in experiment [3] of 71000 M⁻¹ s⁻¹.

B2: human IL-18 receptor beta extracellular domain (residues 15-356), C-terminal 6xHis, Y214A (receptor, UniProt O95256-1 15-356, looked up)
chain: B1 chain with A196E, Y200A
notes: IL-18 receptor beta, human, extracellular domains, residues 15-356 of NM_003853; also called IL-18Rβ Y214A; source: silkworm (B. mori) larvae, BmNPV bacmid, haemolymph, purified (ion exchange, Ni-NTA, gel filtration); not shown: 6xHis, C-terminal, kept
As to B2, in experiment [3], the kon turned out to be 97000 M⁻¹ s⁻¹.

B3: human IL-18 receptor beta extracellular domain (residues 15-356), C-terminal 6xHis, K313A (receptor, UniProt O95256-1 15-356, looked up)
chain: B1 chain with A196E, K299A
notes: IL-18 receptor beta, human, extracellular domains, residues 15-356 of NM_003853; also called IL-18Rβ K313A; source: silkworm (B. mori) larvae, BmNPV bacmid, haemolymph, purified (ion exchange, Ni-NTA, gel filtration); not shown: 6xHis, C-terminal, kept
B3: the kon in experiment [3] was found to be 103000 M⁻¹ s⁻¹.

B4: human IL-18 receptor beta extracellular domain (residues 15-356), C-terminal 6xHis, S169A-T170A (receptor, UniProt O95256-1 15-356, looked up)
chain: B1 chain with S155A, T156A, A196E
notes: IL-18 receptor beta, human, extracellular domains, residues 15-356 of NM_003853; also called IL-18RβS169A-T170A; source: silkworm (B. mori) larvae, BmNPV bacmid, haemolymph, purified (ion exchange, Ni-NTA, gel filtration); not shown: 6xHis, C-terminal, kept
For B4, in experiment [3], binding was characterised by a dissociation constant (Kd) of 77 nM and the kon worked out at 68000 M⁻¹ s⁻¹.

B5: human IL-18 receptor beta extracellular domain (residues 15-356), C-terminal 6xHis, L167A (receptor, UniProt O95256-1 15-356, looked up)
chain: B1 chain with L153A, A196E
notes: IL-18 receptor beta, human, extracellular domains, residues 15-356 of NM_003853; also called IL-18Rβ L167A; source: silkworm (B. mori) larvae, BmNPV bacmid, haemolymph, purified (ion exchange, Ni-NTA, gel filtration); not shown: 6xHis, C-terminal, kept
In turn, B5 came in with a kon in experiment [3] of 76000 M⁻¹ s⁻¹.
